The term IC50 denotes the concentration at which inhibition is half-maximal.

Where a chain is given by its changes, count along the chain named. Like-named read-outs stand apart in the source and are kept apart here.

The source of these data is patent US20250121075A1, “ALPHA-FETOPROTEIN BIOCONJUGATES FOR DISEASE TREATMENT” (priority 2021, published 2025).

One data set has as its system COLO-205 cells. The data set is described as follows: CellTiter-Glo cell viability, 72 hours. Type of data set: cell-based, human. As for the experimental part: Turning to Table 5, two bioconjugates of each of AFP-ABZ982 and AFP-ABZ1827 (4 in total) were prepared at DPRs of approximately 4 (“low DPR”) and 6 (“high DPR”) for efficacy testing in vivo in the COLO-205 human tumor xenograft model. Potency in the COLO-205 cell line prior to implantation was assessed. Briefly, 96 well plates were seeded with COLO-205 cells either at 5,000 or 2,500 cells per well in a total volume to 50 μL per well. Plates were incubated overnight then treated with the bioconjugate at 37° C. for 72 hours and then a CellTiter-Glo assay was performed to measure cell viability. Samples were run in triplicate.
For orientation: Cellular ATP, detected with luciferase, serves as a proxy for viable cell number.

Another data set has as its system U937 cells. Description: Cytotoxicity of AFP-ABZ982 and AFP-ABZ1827 bioconjugates, 4 day incubation. Type of data set: cell-based, human. As to conditions: 4 days. As for the experimental part:
(§1) Bioconjugates containing ABZ981 with two different release functionalities (AFP-ABZ982 and AFP-ABZ1827) were subsequently prepared at DPRs of 2.5 to 6.3. Cells were incubated for 4 days in the presence of the compounds over an 8-point concentration range, with each concentration tested in triplicate. Two experiments performed using freshly thawed U937 cells gave similar results to U937 cells maintained in culture.

Another data set relates to SKOV3 cells. The description is as above. Particulars: read-out: Average IC50 SKOV3 cells (n = 1), 4 days. It is filed as cell-based, human. As to the method: as §1
The conditions of data set [1]: 25 mg/kg single IV, COLO-205 tumor.
Experimental: Bioconjugates containing DM4, DM1 or ABZ981 were resynthesized at a DPR of approximately 4 (Table 3) for comparative testing in a pharmacokinetic/biodistribution (PK/BD) study in mice subcutaneously implanted with COLO-205 tumor xenografts.
The volumes of administration were adjusted to deliver the same amount of bioconjugate (25 mg/kg) to each group of animals as a single IV injection into the tail vein. Blood samples were taken at 0.25 and 1 hours post-injection and blood and tissue samples were taken at 4, 8 and 24 hours to evaluate the pharmacokinetics and biodistribution of the bioconjugates (n=3 per timepoint). A commercially available ELISA kit was used to measure AFP levels and levels of free maytansine and its metabolites were measured by LC/MS.
Data set [2] can be described thus: Maximum tolerated dose in healthy mice. It is filed as in vivo. As to conditions: Q1D×5 for 2 weeks, clinical observations and AST/ALT. As for the experimental part: The four ABZ981-containing bioconjugates above were resynthesized and formulated in a 10 mM HEPES buffer, 5% sucrose at pH 7.5 (Table 6). Prior to testing the efficacy in tumor-bearing mice, the maximum tolerated dose (MTD) was determined for each bioconjugate in healthy mice, employing the same dosing regimen used for the efficacy study (Q1D×5 for 2 weeks) at doses of 0, 5, 10, 20 and 40 mg/kg. MTD was based on clinical observations made daily during the dosing period and elevations of liver enzymes (AST/ALT) determined at the end of treatment. […] In general, a bioconjugate with a higher DPR which carries a larger amount of toxin would be expected to have a lower MTD.

Data set [3] deals with COLO-205 colorectal cancer xenografts. Description: COLO-205 colon carcinoma xenograft efficacy, daily dosing for 2 weeks. Type of data set: in vivo, mice. Particulars: dosed at MTD, FIG. 2. As to the method: In the colon carcinoma xenograft model, 7 week old athymic male mice were implanted with 1×10^7 COLO-205 cells subcutaneously in the right flank. Mice with tumors of approximately 100 mm^3 to 200 mm^3 were randomized to receive control (vehicle) or one of the 4 bioconjugates (10 animals/group). Animals were treated daily for 2 weeks with 2 days of rest after 5 doses; tumor volume was assessed twice weekly for 60 days following implantation. FIGS. 2 and 3 reveal the valuable properties of the present bioconjugates in the COLO 205 human xenograft model of colon cancer as shown by this study.

Setting [4] is: freshly thawed cells, read-out: Average IC50 U937 freshly thawed cells (n = 2).
[5] abbreviates: read-out: Average IC50 U937 cultured cells (n = 1), cells maintained in culture.

Regarding `COc1cc2cc(c1-c1ccc(NC(=O)CCC(C)S)cc1)N(C)C(=O)C[C@H](OC(=O)C(C)C)[C@]1(C)O[C@H]1[C@H](C)[C@@H]1C[C@@](O)(NC(=O)O1)[C@H](OC)/C=C/C=C(\C)C2` (some centres unmarked) [ABZ-981], the IC50 stood at 6.1 nM in the data set with COLO-205 cells (Homo sapiens); 3.06 nM with U937 cells (Homo sapiens, U-937, 96 h, read-out: Average IC50 U937 cultured cells (n = 1), cells maintained in culture); 2.84 nM in the data set with U937 cells (Homo sapiens, U-937, 96 h, freshly thawed cells, read-out: Average IC50 U937 freshly thawed cells (n = 2)); 5.53 nM with SKOV3 cells (Homo sapiens, SK-OV-3, 96 h).

B1: AFP-ABZ981 conjugate: AFP bioconjugate releasing ABZ981, DPR 4.0, tested in the PK/BD study (conjugate, UniProt P02771 19-609, looked up)
Alpha-fetoprotein: RTLHRNEYGIASILDSYQCTAEISLADLATIFFAQFVQEATYKEVSKMVKDALTAIEKPTGDEQSSGCLENQLPAFLEELCHEKEILEKYGHSDCCSQSEEGRHNCFLAHKKPTPASIPLFQVPEPVTSCEAYEEDRETFMNKFIYEIARRHPFLYAPTILLWAARYDKIIPSCCKAENAVECFQTKAATVTKELRESSLLNQHACAVMKNFGTRTFQAITVTKLSQKFTKVNFTEIQKLVLDVAHVHEHCCRGDVLDCLQDGEKIMSYICSQQDTLSNKITECCKLTTLERGQCIIHAENDEKPEGLSPNLNRFLGDRDFNQFSSGEKNIFLASFVHEYSRRHPQLAVSVILRVAKGYQELLEKCFQTENPLECQDKGEEELQKYIQESQALAKRSCGLFQKLGEYYLQNAFLVAYTKKAPQLTSSELMAITRKMAATAATCCQLSEDKLLACGEGAADIIIGHLCIRHEMTPVNPGVGQCCTSSYANRRPCFSSLVVDETYVPPAFSDDKFIFHKDLCQAQGVALQTMKQEFLINLVKQKPQITEEQLEAVIADFSGLLEKCCQGQEQEVCFAEEGQKLISKTRAALGV
modifications: ABZ981-releasing toxin conjugate, DPR 4.0
Turning to B1, in data set [1], the “Peak free toxin levels normalized to AFP (toxin release in tumors)” value is recorded as 18 % of the AFP levels in tumor; the “toxin level in tumor (free maytansine plus metabolites), times higher than DM1 conjugate” value is on record as “approximately 3 times”; the “toxin level in tumor (free maytansine plus metabolites), times higher than DM4 conjugate” value was approximately 22 times.

B2: AFP-ABZ982 DPR 5.51: AFP-ABZ982 bioconjugate, average DPR 5.51 (conjugate, UniProt P02771 19-609, looked up)
Alpha-fetoprotein: B1 Alpha-fetoprotein
modifications: ABZ982 toxin conjugate, DPR 5.51
In the case of B2, the half-inhibitory concentration (IC50) in the data set on U937 cells (setting [4]) came out at 1.71 nM; with U937 cells (setting [5]) it was 2.01 nM; with SKOV3 cells, 17.5 nM.

B3: AFP-ABZ982 low DPR: AFP-ABZ982 bioconjugate, average DPR 3.74 (conjugate, UniProt P02771 19-609, looked up)
Alpha-fetoprotein: B1 Alpha-fetoprotein
modifications: ABZ982 toxin conjugate, DPR 3.74
Take B3: the “Dose (MTD)” value in data set [2] turned out to be 20 mg/kg. In the data set on COLO-205 cells, this molecule came in with an IC50 of 12.9 nM.

B4: AFP-ABZ1827 low DPR: AFP-ABZ1827 bioconjugate, average DPR 3.92 (conjugate, UniProt P02771 19-609, looked up)
Alpha-fetoprotein: B1 Alpha-fetoprotein
modifications: ABZ1827 toxin conjugate, DPR 3.92
On to B4, for which, in data set [2], the “Dose (MTD)” value was 10 mg/kg. In the data set with COLO-205 cells, this molecule registered an IC50 of 17.2 nM.

B5: AFP-ABZ982: AFP linked via di-methylated disulfide linker to ABZ-981, mixture of n 1-11 (conjugate)
chain: B1 Alpha-fetoprotein with N233Q
modifications: non-natural residues
On to B5, for which, in data set [3], the “effect on the growth of the COLO-205 tumors” value was “dramatic, inhibitory effect”.

B6: AFP-ABZ1827 DPR 4.40: AFP-ABZ1827 bioconjugate, average DPR 4.40 (conjugate, UniProt P02771 19-609, looked up)
Alpha-fetoprotein: B1 Alpha-fetoprotein
modifications: ABZ1827 toxin conjugate, DPR 4.40
With B6, the IC50 is 5.98 nM with U937 cells (setting [4]), 7.47 nM with U937 cells (setting [5]) and 58.8 nM with SKOV3 cells.

B7: AFP-ABZ1827 DPR 3.35: AFP-ABZ1827 bioconjugate, average DPR 3.35 (conjugate, UniProt P02771 19-609, looked up)
Alpha-fetoprotein: B1 Alpha-fetoprotein
modifications: ABZ1827 toxin conjugate, DPR 3.35
As for B7, the values for the IC50 with U937 cells (setting [4]), in the data set with U937 cells (setting [5]) and in the data set on SKOV3 cells were 7.07 nM, 5.52 nM and 66.4 nM, respectively.

B8: AFP-ABZ982 DPR 6.28: AFP-ABZ982 bioconjugate, average DPR 6.28 (conjugate, UniProt P02771 19-609, looked up)
Alpha-fetoprotein: B1 Alpha-fetoprotein
modifications: ABZ982 toxin conjugate, DPR 6.28
Regarding B8, the IC50 was determined as 6.55 nM in the data set with U937 cells (setting [5]) and 37 nM in the data set on SKOV3 cells.

B9: AFP-ABZ982 high DPR: AFP-ABZ982 bioconjugate, average DPR 5.81 (conjugate, UniProt P02771 19-609, looked up)
Alpha-fetoprotein: B1 Alpha-fetoprotein
modifications: ABZ982 toxin conjugate, DPR 5.81
Turning to B9, the “Dose (MTD)” value in data set [2] turned out to be 10 mg/kg. The same molecule registered an IC50 in the data set with COLO-205 cells of 4.1 nM.

B10: AFP-ABZ982 DPR 3.84: AFP-ABZ982 bioconjugate, average DPR 3.84 (conjugate, UniProt P02771 19-609, looked up)
Alpha-fetoprotein: B1 Alpha-fetoprotein
modifications: ABZ982 toxin conjugate, DPR 3.84
For B10, the results for the IC50 in the data set with U937 cells (setting [4]), in the data set on U937 cells (setting [5]) and with SKOV3 cells were 5.29 nM, 4.49 nM and 35.5 nM, respectively.

B11: AFP-ABZ1827: AFP linked via mono-methylated disulfide linker to ABZ-981, mixture of n 1-11 (conjugate)
chain: B1 Alpha-fetoprotein with N233Q
modifications: non-natural residues
On to B11, for which, in data set [3], the “effect on the growth of the COLO-205 tumors” value is recorded as “dramatic, inhibitory effect”.

B12: AFP-ABZ982 DPR 2.50: AFP-ABZ982 bioconjugate, average DPR 2.50 (conjugate, UniProt P02771 19-609, looked up)
Alpha-fetoprotein: B1 Alpha-fetoprotein
modifications: ABZ982 toxin conjugate, DPR 2.50
Consider B12, for which the 50% inhibitory concentration (IC50) was found to be 5.25 nM in the data set with U937 cells (setting [4]), 5.22 nM in the data set with U937 cells (setting [5]) and 56.1 nM with SKOV3 cells.

B13: AFP-ABZ1827 DPR 5.88: AFP-ABZ1827 bioconjugate, average DPR 5.88 (conjugate, UniProt P02771 19-609, looked up)
Alpha-fetoprotein: B1 Alpha-fetoprotein
modifications: ABZ1827 toxin conjugate, DPR 5.88
Take B13: the half-inhibitory concentration (IC50) with U937 cells (setting [4]) worked out at 2.93 nM; with U937 cells (setting [5]), 2.04 nM; with SKOV3 cells it was 35.6 nM.
